Tests used:
Ren-2 rats = test: Hemodynamics, hypertrophy and fibrosis in Ren-2 transgenic rats with and without ARB; type: in vivo, rat; details: 0.05 mg/kg/day candesartan from 7-13 weeks of age
Procedure: Homozygous Ren-2 rats were obtained from the Max-Delbrück-Zentrum für Molekulare Medizin, Berlin, Germany. 30 male Ren-2 rats on a Sprague Dawley (SD) background and 9 age-matched SD rats as controls were studied. Of 30 Ren-2 rats, 8 were sacrificed at 10-weeks of age and 8 were treated with 0.05 mg/kg/day of candesartan, an angiotensin II receptor type I blocker (ARB), from 7-13 weeks of age. Of the remaining 14 untreated Ren-2 rats, 6 were sacrificed at 13 weeks upon the development of clinical signs of heart failure and designated as HF-S rats. The remaining 8 Ren-2 rats were closely monitored and were sacrificed at 17 weeks when clinical signs of failure had not yet appeared. These rats were designated as HF-R rats. Hemodynamic parameters were determined before sacrifice and heart, lung and body weight were measured after the sacrifice. The procedure for care and treatment of animals was approved by the institutional animal care committee. Homozygous Ren-2 rats were obtained from the Max-Delbrück-Zentrum für Molekulare Medizin, Berlin, Germany. We studied 16 male Ren-2 rats and 8 age-matched controls from the non-transgenic background, Sprague Dawley (SD) rats. […] The remaining 4 Ren-2 rats were monitored and were sacrificed at 17 weeks when signs of clinical failure had not appeared. […] Heart, lung and body weight were measured after the sacrifice. […]

Rat cardiac fibroblasts = test: Cardiac fibroblast proliferation, methyl-[3H]thymidine incorporation; type: cell-based; details: 24 hours, control 145±4.8, p<0.01
Procedure: (§1) Rat cardiac fibroblasts were isolated from 2-day-old neonatal Sprague-Dawley rats, as described previously (Pokharel et al., Hypertension, 40: 155-161, 2002). Cells were cultured in Dulbecco's modification of eagle's medium (DMEM) supplemented with 10% foetal bovine serum (FBS), along with 1% L-glutamate, 50 U/mL penicillin, and 0.1 g/L streptomycin, and were incubated at 37° C. in a humidified 5% CO2 atmosphere. Twenty-four hours after seeding, cells were made quiescent by incubation with media containing 0.5% FBS for 24 hours. Cells were then treated with murine recombinant galectin-3 (control, 10 μg/ml and 30 μg/ml) for 24 hours. The number of dividing cells was determined by radio-labelled methyl-[^3H] thymidine incorporation (0.5 μCi per well) assay. Radioactivity was measured in the mixture of fibroblasts and scintillation liquid using LKB-Wallace beta counter (FSA Laboratory Supplies, Loughborough, UK).

cardiac fibroblasts = test: Secreted collagen, [3H]proline incorporation assay; type: cell-based, rat
Procedure: as §1
Secreted collagen was measured using a [^3H]proline incorporation assay. Briefly, cardiac fibroblasts were seeded in 6-well plates at 90-100% confluency. During the final 24 hours of incubation, 15 μCi/ml of L-[^3H]proline was added. Incorporated [^3H] proline from the condition medium was precipitated with 10% trichloroacetic acid (TCA) and counted with the scintillation counter. Statistical Analyses

Molecule | dP/dtmax (Ren-2 rats; evaluated at 13 weeks) | LV weight/body weight % (Ren-2 rats; evaluated in sacrificed animals at 13 weeks) | cardiac fibroblast proliferation (thymidine incorporation) (Rat cardiac fibroblasts; galectin-3 at 10 μg/ml) | cardiac fibroblast proliferation (thymidine incorporation) (Rat cardiac fibroblasts; galectin-3 at 30 μg/ml) | proline incorporation (collagen production) (cardiac fibroblasts; galectin-3 at 10 μg/ml, not significant, p=0.13) | increase in proline incorporation (cardiac fibroblasts; galectin-3 at 30 μg/ml vs control) | proline incorporation (collagen production) (cardiac fibroblasts; galectin-3 at 30 μg/ml, control 707±52.8 cpm, p<0.05)
CCOc1nc2cccc(C(=O)O)c2n1Cc1ccc(-c2ccccc2-c2nnn[nH]2)cc1 [candesartan] | 8400±202 mmHg/s | 2.52±0.36% |  |  |  |  | 
galectin-3: murine recombinant galectin-3 added exogenously to rat cardiac fibroblasts (protein, UniProt P16110 2-264, looked up) Galectin-3: ADSFSLNDALAGSGNPNPQGYPGAWGNQPGAGGYPGAAYPGAYPGQAPPGAYPGQAPPGAYPGQAPPSAYPGPTAPGAYPGPTAPGAYPGQPAPGAFPGQPGAPGAYPQCSGGYPAAGPYGVPAGPLTVPYDLPLPGGVMPRMLITIMGTVKPNANRIVLDFRRGNDVAFHFNPRFNENNRRVIVCNTKQDNNWGKEERQSAFPFESGKPFKIQVLVEADHFKVAVNDAHLLQYNHRMKNLREISQLGISGDITLTSANHAMI |  |  | 309±4.8 cpm | 347±17.5 cpm | 992±72 cpm | approximately 66% | 1066±56 cpm
